From patent publication US20060240053A1 (L OREAL, published 2006)

Target: the molecule itself
Experiment: BS3 chemical crosslinking, then gel filtration and SDS-PAGE (self-association)
Protocol: A study of the crosslinking using BS3 (Pierce) is carried out on activated SASPase (SEQ ID NO: 6), obtained by acidification and purification by exclusion chromatography (gel filtration) of the recombinant fusion protein GST-SASPase Δ1-84.
1 μg of BS3 in 60 μl of 50 mM phosphate buffer, pH 7, containing 150 mM NaCl, 0.1% TX100 and 5 mM EDTA is added to the activated SASPase (SEQ ID NO: 6) obtained in example III, placed in ice. A control sample free of BS3 is also prepared. After 90 min, 2 μl of 1 M Tris-HCl, pH 8, are introduced into the reaction media in order to stop the reaction. The products obtained are then analyzed by gel filtration and by SDS-PAGE electrophoresis.

B1: activated SASPase (SEQ ID NO: 6) (enzyme)
chain: ANSMGKGYYLKGKIGKVPVRFLVDSGAQVSVVHPNLWEEVTDGDLDTLQPFENVVKVANGAEMKILGVWDTAVSLGKLKLKAQFLVANASAEEAIIGTDVLQDHNAILDFEHRTCTLKGKKFRLLPVGGSLEDEFDLE
notes: also called 12 kD SASPase
**Q.** Does B1 bind?
**A.** binds
